Assay results from patent publication US6495376B1, “Methods and compositions for regulating protein-protein interactions” (Beth Israel Deaconess Medical Center, priority 1999, dated 2002).

Assays:
WFYpSPFLE (Pintide) = assay: Fluorescence anisotropy (polarization) binding to fluorescein-labeled phosphorylated Pintide analogue
Excerpt: To determine the affinity of Pin1, and its WW or PPIase domain for phosphopeptides, peptides were labeled with fluorescein and their interactions with Pin1 measured using quantitative fluorescence anisotrophy. To prevent nonspecific labeling, a Pintide analogue (WFYpSPFLE) SEQ ID NO: 9 was used, which binds Pin1 with a high affinity based on the peptide library screen as described by (Lu, K. P. et al., U.S. Ser. No. 60/058,164 (1997), the teachings of which are incorporated herein in their entirety.
Pintide and its nonphosphorylated counterpart were synthesized and incubated with GST-Pin1 or the GST-WW-domain of Pin1 in a binding buffer, using established procedures (Shen, M. et al., Genes & Dev 12:706 (1998)). After a 1 hr incubation, mitotic HeLa cell extracts were added and subjected to GST pull down experiments, followed by immunoblotting analysis using the MPM-2 antibody. To obtain semi-quantitative data, films of immunoblots were scanned at the region of 55 kDa, the major Pin1-binding protein, and data analyzed using ImageQuan (ScanJet II CX). The peptide binding constants were measured using a fluorescence polarization assay (Jiskoot, W. et al., Anal Biochem 196:421 (1991)). Peptides were fluorescein labeled at the N-terminus using the Fluorescein Amine Labeling Kit (Pan Vera Corp.) and purified by TLC according to the manufacturer's […]. To prevent nonspecific labeling, a Pintide analogue (WFYpSPFLE) SEQ ID NO: 8 and the nonphosphorylated control were used. Various concentrations of Pin1 and its mutant proteins were incubated with 0.1 μM of the labeled peptides in a binding buffer containing 50 mM HEPES, pH 7.4, 100 mM NaCl, 2% glycerol. Fluorescence polarization values were obtained using a Pan Vera Beacon 2000 system, as described by the manufacturer.

WFYSPFLE = assay: Fluorescence anisotropy binding to fluorescein-labeled nonphosphorylated control peptide; conditions: nonphosphorylated peptide
[1] = system: MPM-2 antigens (mitotic phosphoproteins) of mitotic HeLa cell extracts; assay: GST pulldown from mitotic HeLa cell extracts, MPM-2 immunoblotting (phosphoprotein-binding activity)
Experimental: GST-fusion proteins containing the WW-domain, PPIase-domain or the entire Pin 1 protein were prepared and incubated with interphase (G1/S arrested; Control) or dividing (M phase) HeLa cell extracts using well-known procedures (Lu, K. P., et al., Nature 380:544 (1996); (Shen, M., et al., Genes & Devl. 12:706 (1998)). Briefly, HeLa cells were arrested at the G1/S boundary or mitosis by incubation with thymidine and aphidicolin or nocodazole for 16 h, respectively. The cells were lysed and supernatants incubated with 10 μl of agarose beads containing GST-Pin1; GST-WW-domain of Pin1; GST-PPIase domain of Pin1; or control GST for 2 h at 4° C. […]
Pintide and its nonphosphorylated counterpart were synthesized and incubated with GST-Pin1 or the GST-WW-domain of Pin1 in a binding buffer, using established procedures (Shen, M. et al., Genes & Dev 12:706 (1998)). […] To obtain semi-quantitative data, films of immunoblots were scanned at the region of 55 kDa, the major Pin1-binding protein, and data analyzed using ImageQuan (ScanJet II CX). The peptide binding constants were measured using a fluorescence polarization assay (Jiskoot, W. et al., Anal Biochem 196:421 (1991)). […] Fluorescence polarization values were obtained using a Pan Vera Beacon 2000 system, as described by the manufacturer. […]

peptide substrate = assay: PPIase activity assay with peptide substrate; assay type: biochemical; conditions: relative to wild-type protein defined as 100%
phosphorylated tau = assay: GST-Pin1 pulldown of tau; assay type: binding; conditions: tau phosphorylated by Cdc2 in vitro
Sequence of phosphorylated tau (P10636 45-216 isoform P10636-2 limits assumed): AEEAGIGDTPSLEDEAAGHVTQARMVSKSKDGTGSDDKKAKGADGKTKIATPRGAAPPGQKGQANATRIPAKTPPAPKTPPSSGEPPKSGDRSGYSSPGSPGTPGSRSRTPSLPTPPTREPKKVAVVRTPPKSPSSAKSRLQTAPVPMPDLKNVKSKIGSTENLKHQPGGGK
Excerpt: Pin1 binds and regulates the function of a defined subset of mitotic phosphoproteins by interacting with conserved phosphorylated Ser/Thr-Pro motifs that are also recognized by MPM-2, a mitosis-specific, phosphorylation-dependent monoclonal antibody (mAb) (Yaffe, M. B. et al., Science 278:1957-1960 (1997); Shen, M. et al., Genes Dev. 12:706-720 (1 998)). Tau is an MPM-2 antigen phosphorylated on multiple Ser/Thr-Pro motifs during mitosis (Illenberger, S. et al., Mol Biol Cell 9:1495-1512 (1998)). Experiments were undertaken to determine whether Pin1 binds tau. Tau isoform was either synthesized by in vitro transcription and translation in the presence of ^35S-Met or produced in bacteria as an N-terminal His-tagged protein, followed by purification using NTA-Ni columns (Yaffe, M. B. et al., Science 278:1957-1960 (1997); Shen, M. et al., Genes Dev. 12:706-720 (1998)). To generate interphase- and mitosis-specific phosphorylated form of tau, tau was incubated with Xenopus interphase and mitotic extracts, respectively (Shen, M. et al., Genes Dev. 12:706-720 (1998)). […]
To determine whether Pin1 interacts with pT231-tau, GST-Pin1 beads were used to isolate tau from AD brain extracts or PHFs and T231 phosphorylation detected using CP9. […]

B1: PPlase Domain: C-terminal PPIase domain (amino acids 47-163) of Pin1 (protein)
chain: NGQGEPARVRCSHLLVKHSQSRRPSSWRQEKITRTKEEALELINGYIQKIKSGEEDFESLASQFSDCSSAKARGDLGAFSRGQMQKPFEDASFALRTGEMSGPVFTDSGIHIILRTE
fold lower affinity for the phosphopeptide than the WW-domain (WFYpSPFLE (Pintide)): about 10 fold | binding to Pintide (in words) (WFYpSPFLE (Pintide); fluorescence anisotropy): No binding was detected | Kd (WFYpSPFLE (Pintide); low affinity binding site, read-out: WFYpSPFLE Kd(μM) Low affinity): 15 µM | WFYSPFLE Kd (WFYSPFLE): Not binding | WFYSPFLE Kd (WFYSPFLE; listed as PPIase domain): No binding was detected | Phosphoprotein binding activity ([1]; GST-fusion proteins with mitotic extracts, MPM2 antibody): − | binding to mitotic phosphoproteins / MPM-2 antigens (in words) ([1]; mitotic HeLa cell extracts): no specific binding | PPlase Activity (%) (peptide substrate): 90% | binding to Cdc2 phosphorylated tau (phosphorylated tau): not
